# Test results published in the RNAGym collection of RNA variant scans (doi:10.7554/elife.80360).
# B1: CPEB3 Ribozyme (parent)
# chain: GGGGGCCACAGCAGAAGCGUUCACGUCGCGGCCCCUGUCAGAUUCUGGUGAAUCUGCGAAUUCUGCUGU
# Variants of: B1
# Assay: self-cleavage, relative activity (ratio to wild type); higher = more cleavage; co-transcriptional
row,Variant,self-cleavage
1,U21A U69G,1.06
2,U21A U69C,1.06
3,U21A U69A,1.01
4,U20G U53G,0.166
5,U20G U53A,0.127
6,U20G U53C,0.222
7,U21C G50U,0.878
8,U21C G50A,0.949
9,U21C G50C,0.849
10,U21A U67A,0.992
11,U21A U67C,0.951
12,U21C U61G,0.7
13,U21C U61C,0.572
14,U20G C39G,0.23
15,U20G C39U,0.0993
16,U20G C39A,0.169
17,U20C U49C,0.214
18,U20C U49A,0.137
19,U20C U49G,0.231
20,U20G U43A,0.0656
21,U20G U43C,0.182

row,Variant,self-cleavage
1,U20G U64C,0.189
2,U21A A23U,0.962
3,U21A A23G,0.943
4,U21A A23C,0.969
5,U20C U69C,0.427
6,U20C U69A,0.124
7,U20C U55A,0.175
8,U21A C35U,0.869
9,U21A C35A,0.323
10,U21C A60U,0.391
11,U21C A60G,0.663
12,U21A A40G,0.97
13,U21A A40U,0.896
14,U21A A40C,0.651
15,U20G C29A,0.198
16,U20G C29G,0.128
17,U20G C22G,0.192
18,U20G C22A,0.249
19,U21A C54A,0.872
20,U21A C54G,0.936
21,U21A C54U,0.673

row,Variant,self-cleavage
1,U20G C54U,0.196
2,U20G C54A,0.203
3,U20G C54G,0.118
4,U21A C33A,0.808
5,U21A C33U,1
6,U21A C33G,0.536
7,U21C G48C,0.967
8,U21C G48U,0.901
9,U21A A51U,0.952
10,U21A A51G,1.01
11,U21A A51C,0.953
12,U20G U46A,0.164
13,U20G U46C,0.164
14,U21C G56U,0.693
15,U21C G56A,0.657
16,U21C U26G,0.459
17,U21C U26C,0.805
18,U21A U61G,0.94
19,U21A U61A,0.907
20,U20G U26C,0.114
21,U21C U46G,0.991

row,Variant,self-cleavage
1,U21C U46A,0.88
2,U21A G65C,0.6
3,U21C G68A,1
4,U21C C57A,0.252
5,U21C C57U,0.379
6,U20G U55A,0.139
7,U20G U55G,0.106
8,U20G U55C,0.148
9,U21C G47A,0.915
10,U21C G47C,0.915
11,U21C G47U,0.978
12,U20G G68A,0.235
13,U20G G68C,0.275
14,U20G G56C,0.104
15,U20G G56A,0.191
16,U20G G56U,0.199
17,U20G C27U,0.0848
18,U21C G65U,0.488
19,U21C G65A,0.671
20,U21C G65C,0.393
